Data from the supplement of paper PMC6755084.

B1: F1*; the commonest letter at each place (parent)
chain: GAGACCGCAACTGAAAAGTTGTTATCACTTGTCGTAAGACACTTTGGATGGGTTGAAGTTCTGCACGTAGAAGCAAAAGGC

Variants of: B1
Test: fraction ligated after 30 min (ligated reads / total reads); higher = more ligase activity
Conditions: with F1*sub RNA substrate (template-directed ligation), 42 °C
In short: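 Templates from an oligo pool were PCR-amplified, transcribed with T7 and gel-purified to give the ribozyme variants. Ligated and unligated products were separated on gel, reverse transcribed using barcoded primers, and read on a MiSeq. A quality filter of ≥20 was applied to core bases. Fraction ligated was taken as ligated reads as a share of all reads per variant.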

Variant	fraction ligated
G38A T44G	0.848
G38A T44C	0.818
G38A T44A	0.838
G38C T49G	0.255
G38C T49C	0.0586
G38C T49A	0.233
G38A A41C	0.782
G38A A41T	0.793
G38A A41G	0.765
A37G	0.857
A37T	0.853
G38T C42T	0.851
G38T C42G	0.845
G38T C42A	0.842
G38A A56G	0.783
G38A A56C	0.778
G38A A56T	0.808
G38T A57T	0.812
G38T A57C	0.811
G38T A57G	0.862
G38C T43A	0.825
G38C T43G	0.812
G38C T43C	0.822
G38T A56G	0.806

Variant	fraction ligated
G38T A56C	0.745
G38T A56T	0.826
G38T T44C	0.831
G38T T44A	0.823
G38T T44G	0.828
G38A G46T	0.791
G38A G46C	0.792
G38A G46A	0.805
G38C A57G	0.87
G38C A57C	0.824
G38C A57T	0.828
A37T G38C	0.841
A37T G38T	0.838
A37T G38A	0.827
G38A T43C	0.816
G38A T43G	0.8
G38A T43A	0.835
A37T A39G	0.837
A37T A39T	0.831
A37T A39C	0.785
A37G G50T	0.785
A37G G50C	0.45
A37G G50A	0.659
A39C A57T	0.798

Variant	fraction ligated
A39C A57G	0.786
A39C A57C	0.827
G38A C40G	0.843
G38A C40T	0.833
G38A C40A	0.83
A37G A57T	0.823
A37G A57C	0.82
A37G A57G	0.859
A39C A41G	0.741
A39C A41C	0.792
A39C A41T	0.751
A37G A48T	0.799
A37G A48C	0.763
A37G A48G	0.795
A37T T49C	0.733
A37T T49G	0.791
A37T T49A	0.802
A39C G47T	0.3
A39C G47A	0.757
A39C G47C	0.349
G38T A39G	0.798
G38T A39T	0.817
G38T A39C	0.79
A37T T44G	0.825

Variant	fraction ligated
A37T T44A	0.834
A37T T44C	0.847
G38C A56C	0.209
G38C A56T	0.813
G38C A56G	0.7
A39C C40A	0.797
A39C C40T	0.784
A39C C40G	0.811
A37G G46T	0.806
A37G G46C	0.81
A37G G46A	0.818
A37G T43A	0.867
A37G T43C	0.853
A37G T43G	0.814
A39C T45A	0.778
A39C T45C	0.634
A39C T45G	0.138
A37T A56T	0.83
A37T A56G	0.807
A37T A56C	0.786
G38C G55T	0.768
G38C G55C	0.321
G38C G55A	0.826
G38C A39G	0.811

Variant	fraction ligated
G38C A39T	0.806
G38C A39C	0.752
A37T A48G	0.804
A37T A48C	0.763
A37T A48T	0.675
A37G G47C	0.269
A37G G47A	0.831
A37G G47T	0.397
G38A G50C	0.194
G38A G50T	0.72
G38A G50A	0.391
A37C T45G	0.415
A37C T45A	0.78
A37C T45C	0.778
G38C T44C	0.819
G38C T44A	0.845
G38C T44G	0.839
G38T T49C	0.204
G38T T49A	0.757
G38T T49G	0.76
A37G G38A	0.882
A37G G38T	0.849
A37G G38C	0.828
G38T G46A	0.801

Variant	fraction ligated
G38T G46T	0.782
G38T G46C	0.787
A39G A48G	0.814
A39G A48T	0.824
A39G A48C	0.766
G38C A41G	0.793
G38C A41T	0.785
G38C A41C	0.807
G38C G50T	0.314
G38C G50C	0.0192
G38C G50A	0.101
G38T T43C	0.814
G38T T43A	0.808
G38T T43G	0.773
A37T A57G	0.842
A37T A57T	0.838
A37T A57C	0.854
A39C G46A	0.802
A39C G46C	0.764
A39C G46T	0.776
G38A A57C	0.825
G38A A57T	0.819
G38A A57G	0.855
A37G A56T	0.819

Variant	fraction ligated
A37G A56G	0.818
A37G A56C	0.802
A39C T49G	0.737
A39C T49A	0.706
A39C T49C	0.159
A39C G55C	0.695
A39C G55A	0.821
A39C G55T	0.802
G38T G50T	0.723
G38T G50C	0.134
G38T G50A	0.386
G38C C40A	0.811
G38C C40G	0.813
G38C C40T	0.802
A37G A39T	0.796
A37G A39G	0.853
A37G A39C	0.776
A37G C42G	0.857
A37G C42T	0.857
A37G C42A	0.859
A39C G50T	0.503
A39C G50A	0.292
A39C G50C	0.123
